# Source: patent US20020034767
# B1: G protein-coupled receptor kinase GRK6 (human) (protein)
# chain: MELENIVANTVLLKAREGGGGNRKGKSKKWRQMLQFPHISQCEELRLSLERDYHSLCERHAIGRLLFREFCATRPELSRCVAFLDGVAEYEVTPDDKRKACGRHVTQNFLSHTGPDLIPEVPRQLVTNCTQRLEQGPCKDLFQELTRLTHEYLSVAPFADYLDSIYFNRFLQWKWLERQPVTKNTFRQYRVLGKGGFGEVCACQVRATGKMYACKKLEKKRIKKRKGEAMALNEKQILEKVNSRFVVSLAYAYETKDALCLVLTLMNGGDLKFHIYHMGQAGFPEARAVFYAAEICCGLEDLHRERIVYRDLKPENILLDDHGHIRISDLGLAVHVPEGQTIKGRVGTVGYMAPEVVKNERYTFSPDWWALGCLLYEMIAGQSPFQQRKKKIKREEVERLVKEVPEEYSERFSPQARSLCSQLLCKDPAERLGCRGGSAREVKEHPLFKKLNFKRLGAGMLEPPFKPDPQAIYCKDVLDIEQFSYVKGVELEPTDQDFYQKFATGSVPIPWQNEMVETECFQELNVFGLDGSVPPDLDWKGQPPAPPKKGLLQRLFSRQDCCGNCSDSEEELPTRL
# Tests used:
# [1] = biological target: m2 muscarinic cholinergic receptor
# [2] = biological target: polylysine, a 14-16 amino acid peptide
# peptide RRRAAAEASAAA = biological target: T1, peptide RRRAAAEASAAA
# T1 chain: RRRAAAEASAAA
# peptide RRREEESGGG = biological target: T2, peptide RRREEESGGG
# T2 chain: RRREEESGGG
# peptide RRRAEASAA = biological target: T3, peptide RRRAEASAA
# T3 chain: RRRAEASAA
# [3] = biological target: T4, peptide RRRASAAASAA containing a phosphoserine as the first serine
# T4 chain: RRRASAAASAA
# peptide RRREEESEEE = biological target: T5, peptide RRREEESEEE
# T5 chain: RRREEESEEE
# [4] = biological target: T6, rhodopsin in urea treated rod outer segments, P02699
# T6 chain: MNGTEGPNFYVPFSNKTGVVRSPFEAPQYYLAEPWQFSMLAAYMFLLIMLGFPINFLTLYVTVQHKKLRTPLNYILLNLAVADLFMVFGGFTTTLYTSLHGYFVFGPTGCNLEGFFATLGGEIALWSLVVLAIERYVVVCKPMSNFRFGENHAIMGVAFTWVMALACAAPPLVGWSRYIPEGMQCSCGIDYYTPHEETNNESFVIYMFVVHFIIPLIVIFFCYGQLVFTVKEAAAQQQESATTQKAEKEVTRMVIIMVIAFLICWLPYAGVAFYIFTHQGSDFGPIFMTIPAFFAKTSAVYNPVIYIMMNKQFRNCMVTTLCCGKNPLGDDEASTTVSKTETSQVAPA
protein,measurement,setting,value
B1,kinase activation by G protein βγ subunits,G protein βγ subunits,it is not activated by G protein βγ subunits
same,stimulus dependent receptor phosphorylation,[1],"GRK6 is also able to phosphorylate rhodopsin, β2-adrenergic and m2 muscarinic cholinergic receptors in a stimulus dependent manner, albeit to a significantly lower extent than βARK and GRK5"
same,fold increase in phosphorylation of rhodopsin,[2],an ˜2.7-fold increase in phosphorylation (optimal range 1 to 10 µM)
same,protein substrate phosphorylation,phosvitin,GRK6 was able to phosphorylate the acidic proteins casein and phosvitin
same,peptide phosphorylation,peptide RRRAAAEASAAA,but not with the RRRAAAEASAAA (SEQ ID NO: 11) peptide
same,protein substrate phosphorylation,casein,GRK6 was able to phosphorylate the acidic proteins casein and phosvitin
same,peptide phosphorylation,peptide RRREEESGGG,poorly phosphorylated by GRK6
same,peptide phosphorylation,peptide RRRAEASAA,GRK6 activity was also apparent with the RRRAEASAA (SEQ ID NO: 10) peptide
same,peptide phosphorylation,[3],the same peptide containing a phosphoserine as the first serine is not phosphorylated by GRK6
same,stimulus dependent receptor phosphorylation,β2-adrenergic receptor,"GRK6 is also able to phosphorylate rhodopsin, β2-adrenergic and m2 muscarinic cholinergic receptors in a stimulus dependent manner, albeit to a significantly lower extent than βARK and GRK5"
same,protein substrate phosphorylation,histones,it was only weakly reactive toward the basic protein substrate histones
same,peptide phosphorylation,peptide RRREEESEEE,poorly phosphorylated by GRK6
same,rhodopsin phosphorylation activity relative to βARK virus infected supernatant,[4],4.7% +/-0.4% that of the βARK virus infected supernatant
